Test results reported in article PMC5018465 (Biochimica et biophysica acta, 2016).

B1: αAΔ70–76 deletion mutant of human αA-crystallin (natural protein, UniProt P02489 1-173, looked up)
chain: MDVTIQHPWFKRTLGPFYPSRLFDQFFGEGLFEYDLLPFLSSTISPYYRQSLFRTVLDSGISEVRSDRDVKHFSPEDLTVKVQDDFVEIHGKHNERQDDHGYISREFHRRYRLPSNVDQSALSCSLSADGMLTFCGPKIQTGLDATHAERAIPVSREEKPTSAPSS
B2: αAΔ70–88 deletion mutant of human αA-crystallin (natural protein, UniProt P02489 1-173, looked up)
chain: MDVTIQHPWFKRTLGPFYPSRLFDQFFGEGLFEYDLLPFLSSTISPYYRQSLFRTVLDSGISEVRSDRDVQDDFVEIHGKHNERQDDHGYISREFHRRYRLPSNVDQSALSCSLSADGMLTFCGPKIQTGLDATHAERAIPVSREEKPTSAPSS

Biological target: the molecule itself
Assay: SEC-MALS

Protein | binding result
B1 | binds
B2 | binds
